B1: Catenin alpha-3 (Homo sapiens), Q9UI47-2 (parent)
chain: MSAETPITLNIDPQDLQVQTFTVEKLLEPLIIQVTTLVNCPQNPSSRKKGRSKRASVLLASVEEATWNLLDKGEKIAQEATVLKDELTASLEEVRKESEALKVSAERFTDDPCFLPKREAVVQAARALLAAVTRLLILADMIDVMCLLQHVSAFQRTFESLKNVANKSDLQKTYQKLGKELENLDYLAFKRQQDLKSPNQRDEIAGARASLKENSPLLHSICSACLEHSDVASLKASKDTVCEEIQNALNVISNASQGIQNMTTPPEPQAATLGSALDELENLIVLNPLTVTEEEIRPSLEKRLEAIISGAALLADSSCTRDLHRERIIAECNAIRQALQDLLSEYMNNAGKKERSNTLNIALDNMCKKTRDLRRQLRKAIIDHVSDSFLDTTVPLLVLIEAAKNGREKEIKEYAAIFHEHTSRLVEVANLACSMSTNEDGIKIVKIAANHLETLCPQIINAALALAARPKSQAVKNTMEMYKRTWENHIHVLTEAVDDITSIDDFLAVSGMFLFF
partner: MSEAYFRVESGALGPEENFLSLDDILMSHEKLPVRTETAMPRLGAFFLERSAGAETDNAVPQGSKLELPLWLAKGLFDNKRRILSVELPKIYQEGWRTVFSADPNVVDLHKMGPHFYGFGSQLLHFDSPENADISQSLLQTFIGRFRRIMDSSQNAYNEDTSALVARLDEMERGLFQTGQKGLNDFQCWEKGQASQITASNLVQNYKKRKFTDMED
B2: Transmembrane protein 43 (Homo sapiens), Q9BTV4 (parent)
chain: MAANYSSTSTRREHVKVKTSSQPGFLERLSETSGGMFVGLMAFLLSFYLIFTNEGRALKTATSLAEGLSLVVSPDSIHSVAPENEGRLVHIIGALRTSKLLSDPNYGVHLPAVKLRRHVEMYQWVETEESREYTEDGQVKKETRYSYNTEWRSEIINSKNFDREIGHKNPSAMAVESFMATAPFVQIGRFFLSSGLIDKVDNFKSLSLSKLEDPHVDIIRRGDFFYHSENPKYPEVGDLRVSFSYAGLSGDDPDLGPAHVVTVIARQRGDQLVPFSTKSGDTLLLLHHGDFSAEEVFHRELRSNSMKTWGLRAAGWMAMFMGLNLMTRILYTLVDWFPVFRDLVNIGLKAFAFCVATSLTLLTVAAGWLFYRPLWALLIAGLALVPILVARTRVPAKKLE
partner: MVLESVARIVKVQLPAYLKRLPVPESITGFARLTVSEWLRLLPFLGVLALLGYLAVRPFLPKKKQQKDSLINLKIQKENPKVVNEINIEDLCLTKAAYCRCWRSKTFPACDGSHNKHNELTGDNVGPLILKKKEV
B3: Transmembrane protein 43 (Homo sapiens), Q9BTV4 (parent)
chain: B2 chain
B4: Golgi SNAP receptor complex member 2 (Homo sapiens), O14653 (parent)
chain: MDPLFQQTHKQVHEIQSCMGRLETADKQSVHIVENEIQASIDQIFSRLERLEILSSKEPPNKRQNARLRVDQLKYDVQHLQTALRNFQHRRHAREQQERQREELLSRTFTTNDSDTTIPMDESLQFNSSLQKVHNGMDDLILDGHNILDGLRTQRLTLKGTQKKILDIANMLGLSNTVMRLIEKRAFQDKYFMIGGMLLTCVVMFLVVQYLT
partner: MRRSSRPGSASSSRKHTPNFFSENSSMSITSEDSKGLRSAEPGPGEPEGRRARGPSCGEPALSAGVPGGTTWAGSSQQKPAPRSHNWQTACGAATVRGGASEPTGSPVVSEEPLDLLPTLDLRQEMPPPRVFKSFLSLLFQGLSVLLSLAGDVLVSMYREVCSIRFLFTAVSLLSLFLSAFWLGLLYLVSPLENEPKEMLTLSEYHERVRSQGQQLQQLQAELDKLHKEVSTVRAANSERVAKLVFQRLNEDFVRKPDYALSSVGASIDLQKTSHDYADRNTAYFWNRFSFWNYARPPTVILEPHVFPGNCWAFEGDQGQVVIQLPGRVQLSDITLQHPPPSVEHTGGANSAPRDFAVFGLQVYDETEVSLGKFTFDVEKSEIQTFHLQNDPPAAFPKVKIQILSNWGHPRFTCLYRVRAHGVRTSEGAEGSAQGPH
B5: Golgi SNAP receptor complex member 2 (Homo sapiens), O14653 (parent)
chain: B4 chain
partner: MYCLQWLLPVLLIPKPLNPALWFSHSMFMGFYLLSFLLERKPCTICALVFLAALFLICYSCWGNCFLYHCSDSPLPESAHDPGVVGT
B6: Catenin alpha-3 (Homo sapiens), Q9UI47-2 (parent)
chain: B1 chain
partner: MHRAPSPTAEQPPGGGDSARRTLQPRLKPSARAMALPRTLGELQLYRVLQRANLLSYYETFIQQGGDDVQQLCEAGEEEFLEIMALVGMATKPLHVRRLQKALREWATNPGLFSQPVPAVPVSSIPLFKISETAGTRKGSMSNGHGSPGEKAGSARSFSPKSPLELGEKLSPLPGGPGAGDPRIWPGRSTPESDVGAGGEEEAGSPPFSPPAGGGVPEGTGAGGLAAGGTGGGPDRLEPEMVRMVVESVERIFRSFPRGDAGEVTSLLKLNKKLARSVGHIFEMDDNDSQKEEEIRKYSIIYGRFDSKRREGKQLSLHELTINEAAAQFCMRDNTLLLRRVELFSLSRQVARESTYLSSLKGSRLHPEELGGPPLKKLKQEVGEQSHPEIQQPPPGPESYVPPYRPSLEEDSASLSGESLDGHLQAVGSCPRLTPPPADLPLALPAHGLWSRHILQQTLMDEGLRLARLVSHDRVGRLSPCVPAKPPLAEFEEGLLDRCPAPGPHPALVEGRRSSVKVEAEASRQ
B7: Transmembrane protein 43 (Homo sapiens), Q9BTV4 (parent)
chain: B2 chain
partner: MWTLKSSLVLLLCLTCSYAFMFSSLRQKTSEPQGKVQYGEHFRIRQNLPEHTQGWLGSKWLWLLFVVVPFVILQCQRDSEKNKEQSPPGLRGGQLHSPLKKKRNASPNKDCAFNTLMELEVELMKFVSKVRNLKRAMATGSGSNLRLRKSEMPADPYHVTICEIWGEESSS
B8: Catenin alpha-3 (Homo sapiens), Q9UI47-2 (parent)
chain: B1 chain
partner: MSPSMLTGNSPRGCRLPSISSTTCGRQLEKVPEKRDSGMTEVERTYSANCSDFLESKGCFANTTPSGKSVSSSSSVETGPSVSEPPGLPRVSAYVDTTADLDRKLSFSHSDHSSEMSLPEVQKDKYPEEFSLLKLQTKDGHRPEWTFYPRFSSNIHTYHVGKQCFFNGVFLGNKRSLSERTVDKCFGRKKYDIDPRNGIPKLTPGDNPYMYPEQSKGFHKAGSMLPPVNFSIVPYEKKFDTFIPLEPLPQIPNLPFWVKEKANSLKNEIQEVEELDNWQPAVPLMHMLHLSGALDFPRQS
B9: Golgi SNAP receptor complex member 2 (Homo sapiens), O14653 (parent)
chain: B4 chain
partner: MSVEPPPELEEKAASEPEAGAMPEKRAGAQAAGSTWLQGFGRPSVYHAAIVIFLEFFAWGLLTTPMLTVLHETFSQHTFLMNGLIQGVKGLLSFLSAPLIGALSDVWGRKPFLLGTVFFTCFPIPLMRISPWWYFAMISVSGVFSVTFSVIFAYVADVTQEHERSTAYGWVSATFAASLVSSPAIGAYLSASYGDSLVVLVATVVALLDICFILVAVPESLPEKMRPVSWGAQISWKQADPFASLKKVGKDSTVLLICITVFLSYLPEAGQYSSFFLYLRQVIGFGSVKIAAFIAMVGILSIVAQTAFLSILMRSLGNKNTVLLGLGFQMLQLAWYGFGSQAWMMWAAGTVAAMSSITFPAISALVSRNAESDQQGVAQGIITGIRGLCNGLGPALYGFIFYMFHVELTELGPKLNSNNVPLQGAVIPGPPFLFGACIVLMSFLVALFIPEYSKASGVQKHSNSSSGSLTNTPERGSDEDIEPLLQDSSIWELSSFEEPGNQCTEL
B10: Golgi SNAP receptor complex member 2 (Homo sapiens), O14653 (parent)
chain: B4 chain
partner: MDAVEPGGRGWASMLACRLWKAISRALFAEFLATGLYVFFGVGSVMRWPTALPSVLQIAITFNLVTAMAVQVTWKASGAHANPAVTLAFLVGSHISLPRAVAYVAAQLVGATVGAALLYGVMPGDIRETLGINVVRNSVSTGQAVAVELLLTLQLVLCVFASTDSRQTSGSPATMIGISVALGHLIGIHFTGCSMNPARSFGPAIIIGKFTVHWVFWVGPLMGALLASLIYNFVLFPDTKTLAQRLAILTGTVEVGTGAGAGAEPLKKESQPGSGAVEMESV
B11: Golgi SNAP receptor complex member 2 (Homo sapiens), O14653 (parent)
chain: B4 chain
partner: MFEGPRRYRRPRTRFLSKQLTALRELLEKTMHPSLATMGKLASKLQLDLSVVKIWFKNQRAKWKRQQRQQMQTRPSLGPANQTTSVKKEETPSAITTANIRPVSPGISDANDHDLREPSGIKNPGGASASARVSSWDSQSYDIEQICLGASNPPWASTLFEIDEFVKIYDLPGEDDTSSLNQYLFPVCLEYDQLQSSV

One test covers variants of B1. To be noted: with psf3_human GINS3, Q9BRX5.
Consider V94D, for which the “effect of a mutation on the interaction” value is reported as “disrupting interaction strength”.

The variants in another test derive from B2. To be noted: with cisd2_human CISD2, Q8N5K1.
On to I91V, for which the “effect of a mutation on the interaction” value is listed as “with no effect”. Same read-out and setting: in the case of E85K it was “disrupting interaction strength”; in that of R28W, “with no effect”; in that of E142K, “disrupting interaction strength”.

For Y371H, the “effect of a mutation on the interaction” value is recorded as “with no effect”.

The variants in another test derive from B3. To be noted: with ubp25_human USP25, Q9UHP3.
Chain of ubp25_human USP25, Q9UHP3 (Q9UHP3 whole entry): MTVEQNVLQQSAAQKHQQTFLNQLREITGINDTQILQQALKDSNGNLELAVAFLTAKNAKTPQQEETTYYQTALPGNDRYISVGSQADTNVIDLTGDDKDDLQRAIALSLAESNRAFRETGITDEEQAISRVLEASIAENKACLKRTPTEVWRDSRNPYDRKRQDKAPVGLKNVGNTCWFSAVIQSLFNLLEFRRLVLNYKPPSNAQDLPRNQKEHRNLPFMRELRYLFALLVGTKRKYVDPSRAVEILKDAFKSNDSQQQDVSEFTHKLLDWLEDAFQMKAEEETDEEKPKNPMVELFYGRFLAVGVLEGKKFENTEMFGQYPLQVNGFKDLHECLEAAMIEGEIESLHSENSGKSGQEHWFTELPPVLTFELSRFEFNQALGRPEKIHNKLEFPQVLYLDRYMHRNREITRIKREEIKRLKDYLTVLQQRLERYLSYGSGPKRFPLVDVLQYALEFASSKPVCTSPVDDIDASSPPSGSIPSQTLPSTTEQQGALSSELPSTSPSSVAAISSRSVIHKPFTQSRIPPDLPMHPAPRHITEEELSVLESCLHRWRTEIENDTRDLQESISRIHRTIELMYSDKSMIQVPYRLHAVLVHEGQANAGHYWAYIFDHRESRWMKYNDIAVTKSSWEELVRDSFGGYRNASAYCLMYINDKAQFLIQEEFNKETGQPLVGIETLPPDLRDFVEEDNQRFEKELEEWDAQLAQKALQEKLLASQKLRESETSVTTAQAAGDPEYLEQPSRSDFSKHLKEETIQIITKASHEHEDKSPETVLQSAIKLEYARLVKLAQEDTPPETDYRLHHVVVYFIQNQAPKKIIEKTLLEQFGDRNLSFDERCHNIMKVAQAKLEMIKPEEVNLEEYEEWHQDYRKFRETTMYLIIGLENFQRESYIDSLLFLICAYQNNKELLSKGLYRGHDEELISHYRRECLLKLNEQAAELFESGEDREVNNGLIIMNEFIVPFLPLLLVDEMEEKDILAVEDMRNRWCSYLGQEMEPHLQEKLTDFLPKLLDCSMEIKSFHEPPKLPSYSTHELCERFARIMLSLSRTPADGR
E142K: the “effect of a mutation on the interaction” value is on record as “with no effect”.

For Y371H, the “effect of a mutation on the interaction” value is on record as “with no effect”. Same read-out and setting: in the case of I91V it was “with no effect”. In the case of R28W, the “effect of a mutation on the interaction” value is recorded as “with no effect”. Regarding E85K, the “effect of a mutation on the interaction” value is given as “with no effect”.

Variants of B3 are the subject of the next test. To be noted: with ar13b_human ARL13B.
As for E142K, the “effect of a mutation on the interaction” value is “disrupting interaction strength”. For Y371H, the “effect of a mutation on the interaction” value is on record as “with no effect”. Still for that read-out and setting: the value for I91V was “with no effect”; that for R28W was “disrupting interaction strength”; that for E85K was “disrupting interaction strength”.

Variants of B3 are the subject of the next test. To be noted: with FGA.
Take E142K: the “effect of a mutation on the interaction” value is “with no effect”. Same read-out and setting: the value for Y371H was “with no effect”. As to I91V, the “effect of a mutation on the interaction” value is on record as “with no effect”. Regarding R28W, the “effect of a mutation on the interaction” value is recorded as “with no effect”. E85K: the “effect of a mutation on the interaction” value is given as “with no effect”.

A further test covers variants of B3. To be noted: with PCYT1B.
Regarding E142K, the “effect of a mutation on the interaction” value is reported as “with no effect”. On the same count and under the same terms, the value for Y371H was “with no effect”; that for I91V was “with no effect”. As for R28W, the “effect of a mutation on the interaction” value is listed as “with no effect”.

As to E85K, the “effect of a mutation on the interaction” value is recorded as “with no effect”.

A further test covers variants of B3. To be noted: with zch12_human ZCCHC12, Q6PEW1.
Chain of zch12_human ZCCHC12, Q6PEW1 (Q6PEW1 whole entry): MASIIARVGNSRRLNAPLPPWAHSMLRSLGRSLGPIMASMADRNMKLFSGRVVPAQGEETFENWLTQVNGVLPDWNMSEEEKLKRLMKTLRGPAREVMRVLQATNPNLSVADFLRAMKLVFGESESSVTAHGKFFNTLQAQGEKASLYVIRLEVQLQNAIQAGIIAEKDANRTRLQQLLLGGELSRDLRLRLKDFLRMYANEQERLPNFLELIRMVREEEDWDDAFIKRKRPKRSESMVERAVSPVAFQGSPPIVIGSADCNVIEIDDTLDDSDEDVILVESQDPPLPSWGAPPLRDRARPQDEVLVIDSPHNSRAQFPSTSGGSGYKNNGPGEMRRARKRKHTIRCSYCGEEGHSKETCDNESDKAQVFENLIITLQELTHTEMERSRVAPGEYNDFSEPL
Take E142K: the “effect of a mutation on the interaction” value is reported as “with no effect”. Same read-out and setting: the value for Y371H was “with no effect”; that for I91V was “with no effect”. Turning to R28W, the “effect of a mutation on the interaction” value is “with no effect”. The same measure, in the same setting: in the case of E85K it was “with no effect”.

The variants in a further test derive from B4. To be noted: with spag4_human SPAG4, Q9NPE6.
G144W: the “effect of a mutation on the interaction” value is listed as “with no effect”.

The variants in the next test derive from B5. To be noted: with blcap_human BLCAP.
With G144W, the “effect of a mutation on the interaction” value is reported as “with no effect”.

The next test covers variants of B6. To be noted: with nab2_human NAB2, Q15742.
With V94D, the “effect of a mutation on the interaction” value was “disrupting interaction strength”.

Variants of B7 are the subject of another test. To be noted: with FAM209A.
In the case of E85K, the “effect of a mutation on the interaction” value is “disrupting interaction strength”.

In the case of R28W, the “effect of a mutation on the interaction” value is listed as “with no effect”. For the variant E142K, the “effect of a mutation on the interaction” value was “disrupting interaction strength”. Still for that read-out and setting: in the case of I91V it was “with no effect”; in that of Y371H, “with no effect”.

Variants of B8 are the subject of the next test. To be noted: with spas1_human SPATS1, Q496A3.
V94D: the “effect of a mutation on the interaction” value was “disrupting interaction strength”.

The variants in another test derive from B9. To be noted: with mf14b_human MFSD14B.
For G144W, the “effect of a mutation on the interaction” value is listed as “with no effect”.

The next test covers variants of B10. To be noted: with aqp6_human AQP6, Q13520.
For G144W, the “effect of a mutation on the interaction” value is “with no effect”.

Variants of B11 are the subject of another test. To be noted: with leutx_human LEUTX.
On to G144W, for which the “effect of a mutation on the interaction” value is “with no effect”.

These data come from IntAct's records for PubMed 32296183.
